Measurements as given in patent US8956838B2, “Carboxyl esterase polypeptides” (B.R.A.I.N., priority 2006, dated 2015).

Key:
[1] = Enzyme activity fingerprinting with substrate cocktails; assay type: biochemical; settings: substrate 7-(3-octylcarboxy-(3-hydroxy-3-methyl-butyloxy))-coumarine; fingerprint analysis, 15 μM, 30 min
Method: The enzyme activity fingerprinting used 10 substrates and was carried out as described previously. The assay conditions were 75% PBS buffer at pH 7.4, 25% DMSO and 0.0025% SDS. Each substrate was present in the cocktail at 15 μM, the total concentration of the substrate cocktail was 150 μM. EstA3 was added at a concentration of 0.75 mg/L and EstCE1 at 0.2075 mg/L. The reaction time was 30 min. The chemical background was measured by recording the products observed under the same assay conditions after a 5 day incubation in the absence of the enzyme. The blank value was taken from the reaction after 30 min incubation in the absence of the enzyme.

[2] = Titration assay with triglycerides; assay type: biochemical; settings: 10 mM, 37° C., pH 7.0
Method: Enzyme activities on the substrates triacetin, tripropionin, tributyrin, tricaprylene, trilaurin and vinyl-substrates (vinyl-acetate, ˜propionate, ˜butyrate, ˜caproate, ˜caprylate and ˜laurate) were determined using a standard titration assay with minor modifications. Tests were performed with a Methrom 718 STAT potentiometric titrator (Herisau, Switzerland) and by using 10 mM NaOH for titration. The substrates at 10 mM concentration were emulsified in 20 ml reaction buffer containing 2 mM Tris/HCl pH 7.0. After addition of 7.5 μg of the purified enzyme the NaOH consumption was recorded at a reaction temperature of 37° C. One unit was defined as the amount of enzyme that released […] of fatty acid per min.

| Molecule | conversion of secondary ester, in words [1] | specific activity ([2]; substrate triacetin (C2)) | specific activity ([2]; substrate tributyrin (C4)) | specific activity ([2]; substrate tricaprylin (C8)) | specific activity ([2]; substrate trilaurin (C12)) | specific activity ([2]; substrate tripropionin (C3)) |
| --- | --- | --- | --- | --- | --- | --- |
| EstA3: recombinant enzyme having carboxyl esterase activity, amino acid sequence SEQ ID NO: 2, family VIII of bacterial lipolytic enzymes (protein, metagenomic sequence) MSAEELGFLPDRLARISDHIQTNYLDNGKLPFASLLIGRGDDIALQWSSGVADDAIFRIASMTKPVTSVAFMQLVEQGKVALTDPVAKYIPEFAKLGVFVAGGGNIPFVSRPPTMPMRIVDVLRHTTGFTYSFQERSNIDAAYRKTDVESWTRSTSQSFIDTLAEIPLEFDPGTQWNYSVSTDVLGILIERISGQSLPDYFRDHIFAPLGMVDTCFTVPADKAARIPQCFAFDPATKMKLFDEAGASSLWTKGWSFNSGGGGLASSVADYHRFCRMLLNGGALDGIQIISPKTLELMTANHLPGGQDLTQMSKSLFSEAEMAGIGFGLGFATTIDSVATLTPCSTGDFYWGGMYSTAFFVDPVEDIIMIFMTQLMPSSTYPVRREIKTMIYSALAA | able to convert | 147.5 U/mg | 167.5 U/mg |  |  |  |
| EstCE1: recombinant enzyme having carboxyl esterase activity, amino acid sequence SEQ ID NO: 4, family VIII of bacterial lipolytic enzymes (protein, metagenomic sequence) MSIADQSLAKRVQGVSQQAIDEGRIVGSVVLIARHGRVIYANASGYADREQKKPMVRETQFRLSSVSKPYITLAAMRMIEQQKLGLDDTVSRWLPWFTPALADGVRPPIKIRHLLSHTAGLDYRLSQPAEGPYHRLGIKDGMELSSLTLEQNLRLLAQADLLAEPGSEFRYSLAIDVLGAVLEQVAGEPLPQVFNHWVAQPLGLRNTGFYTTDVDNLATAYHDTAAEPEPIRDGMLLTLPEGFGFEIELAPSRALDAQAYPSGGAGMVGDADDVLQLVETLRTGKEGILQPATAALMRQAHVGSHAETQGPGWGFGFGGAVLEDAQLAATPQHNGTLQWGGVYGHSWFYDPQAAISVVALTNTAFEGMSGRYPLQIRDAVYGTNEPTR |  | 26.7 U/mg | 54.7 U/mg | 0 U/mg | 0 U/mg | 33.3 U/mg |
